Measured values reported in US7183387 (Genentech, dated 2007).

T1: human FcγRIIA-Arg131 α subunit extracellular domain-His6-GST fusion (human, UniProt P12318 34-217)
T1 construct: extracellular domain; also called FcγRIIA-R131; not shown: glutathione S transferase (GST)
T1 sequence: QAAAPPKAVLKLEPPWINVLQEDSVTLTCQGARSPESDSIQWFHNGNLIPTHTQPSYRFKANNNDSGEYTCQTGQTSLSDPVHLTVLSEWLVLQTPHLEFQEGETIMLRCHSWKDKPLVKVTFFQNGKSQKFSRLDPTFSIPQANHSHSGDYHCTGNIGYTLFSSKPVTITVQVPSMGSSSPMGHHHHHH

T2: human FcγRIIB α subunit extracellular domain-His6-GST fusion (human, UniProt P31994 43-217)
T2 construct: extracellular domain; also called CD32; not shown: glutathione S transferase (GST)
T2 sequence: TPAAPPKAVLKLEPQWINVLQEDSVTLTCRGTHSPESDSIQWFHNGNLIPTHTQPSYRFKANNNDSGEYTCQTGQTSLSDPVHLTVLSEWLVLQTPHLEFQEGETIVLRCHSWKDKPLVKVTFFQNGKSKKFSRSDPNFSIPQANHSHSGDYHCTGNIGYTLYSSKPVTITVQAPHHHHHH


Experiments:
[1] = target: T1, human FcγRIIA-Arg131 α subunit …; assay: hexamer ELISA
[2] = target: T2, human FcγRIIB α subunit extracellular …; assay: hexamer ELISA
[3] = target: T3, human FcγRIIIA-Phe158 α subunit extracellular domain-His6-GST fusion (human, UniProt P08637 17-208); assay: hexamer ELISA
T3 construct: extracellular domain; also called FcγRIIIA-F158; CD16; not shown: glutathione S transferase (GST)
T3 sequence (P08637 other isoform, or with tags, fused parts or gaps): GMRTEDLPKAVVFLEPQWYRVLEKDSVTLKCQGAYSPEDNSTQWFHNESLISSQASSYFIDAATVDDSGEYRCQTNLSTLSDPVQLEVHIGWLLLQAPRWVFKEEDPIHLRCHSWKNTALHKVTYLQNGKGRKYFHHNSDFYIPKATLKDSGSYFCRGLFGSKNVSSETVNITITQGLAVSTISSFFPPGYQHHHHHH

[4] = target: T4, human neonatal Fc receptor (FcRn), biotinylated (human, UniProt P55899 24-297; P61769 21-119, biotinylated (biotin-X-NHS)); assay: FcRn ELISA, pH 6.0;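 further: Streptavidin-captured FcRn plates, IgG variants titrated 2 h at pH 6.0, peroxidase anti-human IgG read at 450 nm, variant over standard concentration at the standard curve mid-point absorbance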
T4 construct: captured on streptavidin plates

[5] = target: T5, human FcγRIA α subunit extracellular domain-His6-GST fusion (human, UniProt P12314 16-292); assay: FcγRI ELISA and THP-1 cells, averaged
T5 construct: extracellular domain; also called GST-FcγRIA; CD64; not shown: glutathione S transferase (GST)
T5 sequence (P12314 other isoform, or with tags, fused parts or gaps): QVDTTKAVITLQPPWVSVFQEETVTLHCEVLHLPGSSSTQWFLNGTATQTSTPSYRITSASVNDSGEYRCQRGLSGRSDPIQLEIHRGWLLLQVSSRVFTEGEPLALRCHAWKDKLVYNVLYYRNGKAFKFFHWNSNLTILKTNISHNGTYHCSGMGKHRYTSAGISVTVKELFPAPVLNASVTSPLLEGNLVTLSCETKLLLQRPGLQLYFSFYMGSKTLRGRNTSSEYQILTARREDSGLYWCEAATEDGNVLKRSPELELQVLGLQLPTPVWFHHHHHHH

ratio to native IgG1 [1] [ratio]	ratio to native IgG1 [2] [ratio]	ratio to native IgG1 [3] [ratio]	ratio to native IgG1 [4] [ratio]	ratio to native IgG1 [5] [ratio]	Binder
1.01	0.9	1.39	1.05	1.06	anti-IgE E27 IgG1 Lys334Ala (antibody, also called G55 K334A) heavy: not shown light: DIQLTQSPSSLSASVGDRVTITCRASKPVDGEGDSYLNWYQQKPGKAPKLLIYAASYLESGVPSRFSGSGSGTDFTLTISSLQPEDFATYYCQQSHEDPYTFGQGTKVEIKRTVAAPSVFIFPPSDEQLKSGTASVVCLLNNFYPREAKVQWKVDNALQSGNSQESVTEQDSKDSTYSLSSTLTLSKADYEKHKVYACEVTHQGLSSPVTKSFNRGEC
1.12	1.23	0.84	1.46	1.04	anti-IgE E27 IgG1 Val305Ala (antibody) heavy: not shown light: DIQLTQSPSSLSASVGDRVTITCRASKPVDGEGDSYLNWYQQKPGKAPKLLIYAASYLESGVPSRFSGSGSGTDFTLTISSLQPEDFATYYCQQSHEDPYTFGQGTKVEIKRTVAAPSVFIFPPSDEQLKSGTASVVCLLNNFYPREAKVQWKVDNALQSGNSQESVTEQDSKDSTYSLSSTLTLSKADYEKHKVYACEVTHQGLSSPVTKSFNRGEC
1.04	1.02	0.89	1.41	0.98	anti-IgE E27 IgG1 Ser424Ala (antibody) heavy: not shown light: DIQLTQSPSSLSASVGDRVTITCRASKPVDGEGDSYLNWYQQKPGKAPKLLIYAASYLESGVPSRFSGSGSGTDFTLTISSLQPEDFATYYCQQSHEDPYTFGQGTKVEIKRTVAAPSVFIFPPSDEQLKSGTASVVCLLNNFYPREAKVQWKVDNALQSGNSQESVTEQDSKDSTYSLSSTLTLSKADYEKHKVYACEVTHQGLSSPVTKSFNRGEC
1.22	1.26	0.94	1.03	1.17	anti-IgE E27 IgG1 Ser337Ala (antibody) heavy: not shown light: DIQLTQSPSSLSASVGDRVTITCRASKPVDGEGDSYLNWYQQKPGKAPKLLIYAASYLESGVPSRFSGSGSGTDFTLTISSLQPEDFATYYCQQSHEDPYTFGQGTKVEIKRTVAAPSVFIFPPSDEQLKSGTASVVCLLNNFYPREAKVQWKVDNALQSGNSQESVTEQDSKDSTYSLSSTLTLSKADYEKHKVYACEVTHQGLSSPVTKSFNRGEC
1.07	1.27	1.09	1.81	0.99	anti-IgE E27 IgG1 Thr307Ala (antibody) heavy: not shown light: DIQLTQSPSSLSASVGDRVTITCRASKPVDGEGDSYLNWYQQKPGKAPKLLIYAASYLESGVPSRFSGSGSGTDFTLTISSLQPEDFATYYCQQSHEDPYTFGQGTKVEIKRTVAAPSVFIFPPSDEQLKSGTASVVCLLNNFYPREAKVQWKVDNALQSGNSQESVTEQDSKDSTYSLSSTLTLSKADYEKHKVYACEVTHQGLSSPVTKSFNRGEC
0.73	0.76	0.26	1.06	0.81	anti-IgE E27 IgG1 Ser239Ala (antibody) heavy: not shown light: DIQLTQSPSSLSASVGDRVTITCRASKPVDGEGDSYLNWYQQKPGKAPKLLIYAASYLESGVPSRFSGSGSGTDFTLTISSLQPEDFATYYCQQSHEDPYTFGQGTKVEIKRTVAAPSVFIFPPSDEQLKSGTASVVCLLNNFYPREAKVQWKVDNALQSGNSQESVTEQDSKDSTYSLSSTLTLSKADYEKHKVYACEVTHQGLSSPVTKSFNRGEC
1.12	1.12	1.23	1.3	1.02	anti-IgE E27 IgG1 Lys360Ala (antibody) heavy: not shown light: DIQLTQSPSSLSASVGDRVTITCRASKPVDGEGDSYLNWYQQKPGKAPKLLIYAASYLESGVPSRFSGSGSGTDFTLTISSLQPEDFATYYCQQSHEDPYTFGQGTKVEIKRTVAAPSVFIFPPSDEQLKSGTASVVCLLNNFYPREAKVQWKVDNALQSGNSQESVTEQDSKDSTYSLSSTLTLSKADYEKHKVYACEVTHQGLSSPVTKSFNRGEC
0.86	0.65	0.33	1.26	0.91	anti-IgE E27 IgG1 Val303Ala (antibody) heavy: not shown light: DIQLTQSPSSLSASVGDRVTITCRASKPVDGEGDSYLNWYQQKPGKAPKLLIYAASYLESGVPSRFSGSGSGTDFTLTISSLQPEDFATYYCQQSHEDPYTFGQGTKVEIKRTVAAPSVFIFPPSDEQLKSGTASVVCLLNNFYPREAKVQWKVDNALQSGNSQESVTEQDSKDSTYSLSSTLTLSKADYEKHKVYACEVTHQGLSSPVTKSFNRGEC
1.41	2.06	1.32	1.91	1.01	anti-IgE E27 IgG1 Thr256Ala (antibody) heavy: not shown light: DIQLTQSPSSLSASVGDRVTITCRASKPVDGEGDSYLNWYQQKPGKAPKLLIYAASYLESGVPSRFSGSGSGTDFTLTISSLQPEDFATYYCQQSHEDPYTFGQGTKVEIKRTVAAPSVFIFPPSDEQLKSGTASVVCLLNNFYPREAKVQWKVDNALQSGNSQESVTEQDSKDSTYSLSSTLTLSKADYEKHKVYACEVTHQGLSSPVTKSFNRGEC
0.9	0.88	0.86	0.44	1.04	anti-IgE E27 IgG1 Ser415Ala (antibody) heavy: not shown light: DIQLTQSPSSLSASVGDRVTITCRASKPVDGEGDSYLNWYQQKPGKAPKLLIYAASYLESGVPSRFSGSGSGTDFTLTISSLQPEDFATYYCQQSHEDPYTFGQGTKVEIKRTVAAPSVFIFPPSDEQLKSGTASVVCLLNNFYPREAKVQWKVDNALQSGNSQESVTEQDSKDSTYSLSSTLTLSKADYEKHKVYACEVTHQGLSSPVTKSFNRGEC
1.52	1.84	1.05	1.08	1.09	anti-IgE E27 IgG1 Ser267Ala (antibody, also called G15 S267A) heavy: not shown light: DIQLTQSPSSLSASVGDRVTITCRASKPVDGEGDSYLNWYQQKPGKAPKLLIYAASYLESGVPSRFSGSGSGTDFTLTISSLQPEDFATYYCQQSHEDPYTFGQGTKVEIKRTVAAPSVFIFPPSDEQLKSGTASVVCLLNNFYPREAKVQWKVDNALQSGNSQESVTEQDSKDSTYSLSSTLTLSKADYEKHKVYACEVTHQGLSSPVTKSFNRGEC
0.78	0.63	0.15	1.14	0.9	anti-IgE E27 IgG1 Lys338Ala (antibody) heavy: not shown light: DIQLTQSPSSLSASVGDRVTITCRASKPVDGEGDSYLNWYQQKPGKAPKLLIYAASYLESGVPSRFSGSGSGTDFTLTISSLQPEDFATYYCQQSHEDPYTFGQGTKVEIKRTVAAPSVFIFPPSDEQLKSGTASVVCLLNNFYPREAKVQWKVDNALQSGNSQESVTEQDSKDSTYSLSSTLTLSKADYEKHKVYACEVTHQGLSSPVTKSFNRGEC
0.38	0.36	0.07	1.49	0.6	anti-IgE E27 IgG1 Pro238Ala (antibody) heavy: not shown light: DIQLTQSPSSLSASVGDRVTITCRASKPVDGEGDSYLNWYQQKPGKAPKLLIYAASYLESGVPSRFSGSGSGTDFTLTISSLQPEDFATYYCQQSHEDPYTFGQGTKVEIKRTVAAPSVFIFPPSDEQLKSGTASVVCLLNNFYPREAKVQWKVDNALQSGNSQESVTEQDSKDSTYSLSSTLTLSKADYEKHKVYACEVTHQGLSSPVTKSFNRGEC
0.4	0.23	1.34	0.8	1.11	anti-IgE E27 IgG1 Ser298Ala (antibody, also called G36 S298A) heavy: not shown light: DIQLTQSPSSLSASVGDRVTITCRASKPVDGEGDSYLNWYQQKPGKAPKLLIYAASYLESGVPSRFSGSGSGTDFTLTISSLQPEDFATYYCQQSHEDPYTFGQGTKVEIKRTVAAPSVFIFPPSDEQLKSGTASVVCLLNNFYPREAKVQWKVDNALQSGNSQESVTEQDSKDSTYSLSSTLTLSKADYEKHKVYACEVTHQGLSSPVTKSFNRGEC
